Article PMC6308003, “Nitric Oxide Production from Nitrite Reduction and Hydroxylamine Oxidation by Copper-containing Dissimilatory Nitrite Reductase (NirK) from the Aerobic Ammonia-oxidizing Archaeon, Nitrososphaera viennensis” (Microbes and Environments, 2018)

Assays:
purified protein = substrate: O=NO; experiment: purified protein; assay type: biochemical, Nitrososphaera viennensis; details: anoxic, 0.5 mM benzyl viologen, 0.24 mM dithionite, 20 mM phosphate pH 6.5, 25°C, labelled compound
[1] = substrate: NO; experiment: colorimetric NH2OH consumption; assay type: biochemical, Nitrososphaera viennensis; details: aerobic, dissolved O2 as oxidant, pH 7.5, 30°C
Text: colorimetric NH2OH consumption on Ns. viennensis NirK

B1: Ns. viennensis NirK (Nitrososphaera viennensis EN76) (protein)
chain: APTGVTRHYTLIANEMEVQVAPDNALHPGGIKYNAMVFNGTIPGPVMASNAGDTVEITLKNEGKQIHSIDFHAAIGPSQVLSGNIAAGESKTWTFNTPNSGAFMYHCGADALNGVWEHIANGMYGAFVVHPTNEAPAKEFYVAFGEIYNSADGGLFVGANGTGSFDIMKFATEQPDLILTNGMAHRYVPAIGQSVKLDLNANATVFQVKPGELTRWYILAPGPNEGVSFHFISGQIDVRDGSFKTRNMAPVRNEETWWIPVGSASVIESVFPEEGLYVGVDHNMAHVLRGGAFAVLATNNSTADDVPPEAWVPSKAWLNEHAEMGGSMMGGSAGNNATSGGNTTSG
notes: signal peptide Met1-Ala24 removed, 6xHis tag (pCold I), E. coli BL21(DE3), Cu-reconstituted
**Q.** How did the Km (purified protein) turn out when B1 was run?
**A.** The Km was 287 µM.

**Q.** And the kcat (purified protein)?
**A.** The kcat was 3.1 s⁻¹.

**Q.** And the Km [1]?
**A.** The Km was 97 µM.

**Q.** What about the kcat [1] of the same protein?
**A.** Its kcat is 0.039 s⁻¹.
